Laboratory results reported in patent US20120058906A1.

Tests used:
[1] = biological target: rHuman Notch-1/Fc Chimera, CF (R&D Systems Cat#3647-TK) (human) (UniProt P46531); test: ECL (MSD multi-spot), Fab 170 nM; blank 262
[2] = biological target: rHuman HGF R/c-MET/Fc Chimera, CF (R&D Systems Cat#358-MT/CF) (human) (UniProt P08581); test: ECL (MSD multi-spot), Fab 170 nM; blank 262
[3] = biological target: rHuman ErbB2/Fc Chimera, CF (R&D Systems Cat#1129-ER) (human) (UniProt P04626); test: ECL (MSD multi-spot), Fab 170 nM; blank 262
[4] = biological target: rHuman P-Cadherin/Fc Chimera, CF (R&D Systems Cat#861-PC) (human) (UniProt P22223); test: ECL (MSD multi-spot), Fab 170 nM; blank 262
[5] = biological target: rHuman EGF R/Fc Chimera, CF (R&D Systems Cat#344-ER) (human) (UniProt P00533); test: ECL (MSD multi-spot), Fab 170 nM; blank 262
[6] = biological target: rHuman Erythropoietin R/Fc Chimera, CF (R&D Systems Cat#963-ER) (human) (UniProt P19235); test: ECL (MSD multi-spot), Fab 170 nM; blank 262
Chain of rHuman Erythropoietin R/Fc Chimera, CF (R&D Systems Cat#963-ER) (human) (P19235 25-250, change not shown): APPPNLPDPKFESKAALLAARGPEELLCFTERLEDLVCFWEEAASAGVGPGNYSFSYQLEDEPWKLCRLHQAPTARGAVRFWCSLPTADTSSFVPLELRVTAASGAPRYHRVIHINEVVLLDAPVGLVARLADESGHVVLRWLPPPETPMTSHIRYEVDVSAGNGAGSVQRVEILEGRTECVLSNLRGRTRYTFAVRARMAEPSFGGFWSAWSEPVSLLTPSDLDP

[7] = biological target: rHuman IGF-1 sR (IGF-1 sR), CF (R&D Systems Cat#391-GR) (human) (UniProt P08069); test: ECL (MSD multi-spot), Fab 170 nM; blank 262
[8] = biological target: rHuman CD44/Fc Chimera, CF (R&D Systems Cat#3660-CD) (human) (UniProt P16070); test: ECL (MSD multi-spot), Fab 170 nM; blank 262
[9] = biological target: rHuman HGF R/c-MET/Fc Chimera, CF (R&D Systems Cat#358-MT/CF) (human) (UniProt P08581); test: ECL (MSD multi-spot), Fab 85.0 nM; blank 292
[10] = biological target: rHuman EGF R/Fc Chimera, CF (R&D Systems Cat#344-ER) (human) (UniProt P00533); test: ECL (MSD multi-spot), Fab 85.0 nM; blank 292

**Q.** “Fab VH4-34_IGHD7-27*01_IGHJ4*01 & V4-6_IGLJ4*01” was tested. Which ECL signal [1] did it give?
**A.** Its ECL signal is 816 ECL signal.

**Q.** What about the ECL signal [2] of the same substance?
**A.** The ECL signal was 757 ECL signal.

**Q.** And the ECL signal [3]?
**A.** Its ECL signal is 964 ECL signal.

**Q.** And the ECL signal [4]?
**A.** Its ECL signal is 744 ECL signal.

**Q.** What about the ECL signal [5] of the same substance?
**A.** Its ECL signal is 826 ECL signal.

**Q.** And the ECL signal [6]?
**A.** Its ECL signal is 790 ECL signal.

**Q.** What about the ECL signal [7] of the same substance?
**A.** The ECL signal was 832 ECL signal.

**Q.** And the ECL signal [8]?
**A.** The ECL signal was 660 ECL signal.

**Q.** And the ECL signal [9]?
**A.** Its ECL signal is 998 ECL signal.

**Q.** What about the ECL signal [10] of the same substance?
**A.** The ECL signal was 1000 ECL signal.
